Paper PMC3472523 (2012)
Positions of bridges follow the written chain, without caps; N, C: chain ends. fluorescein = fluorescein, an N-terminal fluorescent label

T1: Mcl-1 (Mus musculus, UniProt P97287)
T1 chain: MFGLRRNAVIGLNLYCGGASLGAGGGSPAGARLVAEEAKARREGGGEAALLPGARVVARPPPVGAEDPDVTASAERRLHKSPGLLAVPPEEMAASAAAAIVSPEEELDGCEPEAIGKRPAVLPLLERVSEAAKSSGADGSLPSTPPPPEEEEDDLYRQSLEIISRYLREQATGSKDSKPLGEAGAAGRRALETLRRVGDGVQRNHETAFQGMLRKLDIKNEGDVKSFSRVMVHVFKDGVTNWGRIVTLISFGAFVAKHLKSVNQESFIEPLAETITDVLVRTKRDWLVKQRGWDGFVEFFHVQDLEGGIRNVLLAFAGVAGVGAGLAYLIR


How the values were obtained:
[1] = target: T1, Mcl-1; assay: competitive fluorescence polarization
[2] = target: Bcl-xL (Homo sapiens, UniProt Q07817); assay: fluorescence polarization
Chain of Bcl-xL (Q07817 whole entry): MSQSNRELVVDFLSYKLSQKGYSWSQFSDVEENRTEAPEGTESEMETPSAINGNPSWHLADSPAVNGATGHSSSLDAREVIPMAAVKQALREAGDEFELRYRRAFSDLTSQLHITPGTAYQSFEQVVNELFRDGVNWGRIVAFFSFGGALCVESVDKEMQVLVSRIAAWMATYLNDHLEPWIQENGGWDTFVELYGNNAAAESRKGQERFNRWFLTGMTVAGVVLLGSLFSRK

Ki [1] [nM]	Kd [2] [nM]	Binder
23	–	AACLRAIGDCVNLRQKLLN (HELM PEPTIDE1{[ac].A.A.[dC].L.R.A.I.G.D.C.V.N.L.R.Q.K.L.L.N.[am]}|CHEM1{[c1cc(-c2ccc(C[*:2])cc2)ccc1C[*:1]]}$PEPTIDE1,CHEM1,4:R3-1:R1|PEPTIDE1,CHEM1,11:R3-1:R2$$$V2.0; SMILES CC[C@H](C)[C@@H]1NC(=O)[C@H](C)NC(=O)[C@H](CCCNC(=N)N)NC(=O)[C@H](CC(C)C)NC(=O)[C@H](NC(=O)[C@H](C)NC(=O)[C@H](C)NC(C)=O)CSCc2ccc(cc2)-c2ccc(cc2)CSC[C@@H](C(=O)N[C@H](C(=O)N[C@@H](CC(N)=O)C(=O)N[C@@H](CC(C)C)C(=O)N[C@@H](CCCNC(=N)N)C(=O)N[C@@H](CCC(N)=O)C(=O)N[C@@H](CCCCN)C(=O)N[C@@H](CC(C)C)C(=O)N[C@@H](CC(C)C)C(=O)N[C@@H](CC(N)=O)C(N)=O)C(C)C)NC(=O)[C@H](CC(=O)O)NC(=O)CNC1=O) [Noxa peptide 3]
22	–	AACLRRIGDCVNLRQKLLN (HELM PEPTIDE1{[COC(=O)[*:2]].[meA].[meA].[dC].L.R.R.I.G.D.C.V.N.L.R.Q.K.L.L.N.[am]}|CHEM1{[c1cc(-c2ccc(C[*:2])cc2)ccc1C[*:1]]}$PEPTIDE1,CHEM1,4:R3-1:R1|PEPTIDE1,CHEM1,11:R3-1:R2$$$V2.0; SMILES CC[C@H](C)[C@@H]1NC(=O)[C@H](CCCNC(=N)N)NC(=O)[C@H](CCCNC(=N)N)NC(=O)[C@H](CC(C)C)NC(=O)[C@H](NC(=O)[C@H](C)N(C)C(=O)[C@H](C)N(C)C(=O)OC)CSCc2ccc(cc2)-c2ccc(cc2)CSC[C@@H](C(=O)N[C@H](C(=O)N[C@@H](CC(N)=O)C(=O)N[C@@H](CC(C)C)C(=O)N[C@@H](CCCNC(=N)N)C(=O)N[C@@H](CCC(N)=O)C(=O)N[C@@H](CCCCN)C(=O)N[C@@H](CC(C)C)C(=O)N[C@@H](CC(C)C)C(=O)N[C@@H](CC(N)=O)C(N)=O)C(C)C)NC(=O)[C@H](CC(=O)O)NC(=O)CNC1=O) [Noxa peptide 7]
28	–	AACLRAIGDCVNLAQKLLN (HELM PEPTIDE1{[ac].A.A.[dC].L.R.A.I.G.D.C.V.N.L.A.Q.K.L.L.N.[am]}|CHEM1{[c1cc(-c2ccc(C[*:2])cc2)ccc1C[*:1]]}$PEPTIDE1,CHEM1,4:R3-1:R1|PEPTIDE1,CHEM1,11:R3-1:R2$$$V2.0; SMILES CC[C@H](C)[C@@H]1NC(=O)[C@H](C)NC(=O)[C@H](CCCNC(=N)N)NC(=O)[C@H](CC(C)C)NC(=O)[C@H](NC(=O)[C@H](C)NC(=O)[C@H](C)NC(C)=O)CSCc2ccc(cc2)-c2ccc(cc2)CSC[C@@H](C(=O)N[C@H](C(=O)N[C@@H](CC(N)=O)C(=O)N[C@@H](CC(C)C)C(=O)N[C@@H](C)C(=O)N[C@@H](CCC(N)=O)C(=O)N[C@@H](CCCCN)C(=O)N[C@@H](CC(C)C)C(=O)N[C@@H](CC(C)C)C(=O)N[C@@H](CC(N)=O)C(N)=O)C(C)C)NC(=O)[C@H](CC(=O)O)NC(=O)CNC1=O) [Noxa peptide 4]

Further lines, the binder ahead of its results:

Binder	Ki [1] [nM]	Kd [2] [nM]
AACLRRIGDCVNLRQKLLN (HELM PEPTIDE1{[ac].A.A.[dC].L.R.R.I.G.D.C.V.N.L.R.Q.K.L.L.N.[am]}|CHEM1{[c1cc(-c2ccc(C[*:2])cc2)ccc1C[*:1]]}$PEPTIDE1,CHEM1,4:R3-1:R1|PEPTIDE1,CHEM1,11:R3-1:R2$$$V2.0; SMILES CC[C@H](C)[C@@H]1NC(=O)[C@H](CCCNC(=N)N)NC(=O)[C@H](CCCNC(=N)N)NC(=O)[C@H](CC(C)C)NC(=O)[C@H](NC(=O)[C@H](C)NC(=O)[C@H](C)NC(C)=O)CSCc2ccc(cc2)-c2ccc(cc2)CSC[C@@H](C(=O)N[C@H](C(=O)N[C@@H](CC(N)=O)C(=O)N[C@@H](CC(C)C)C(=O)N[C@@H](CCCNC(=N)N)C(=O)N[C@@H](CCC(N)=O)C(=O)N[C@@H](CCCCN)C(=O)N[C@@H](CC(C)C)C(=O)N[C@@H](CC(C)C)C(=O)N[C@@H](CC(N)=O)C(N)=O)C(C)C)NC(=O)[C@H](CC(=O)O)NC(=O)CNC1=O) [Noxa peptide 2]	54	–
AACLRAIGDCVNLAQALLN (HELM PEPTIDE1{[ac].A.A.[dC].L.R.A.I.G.D.C.V.N.L.A.Q.A.L.L.N.[am]}|CHEM1{[c1cc(-c2ccc(C[*:2])cc2)ccc1C[*:1]]}$PEPTIDE1,CHEM1,4:R3-1:R1|PEPTIDE1,CHEM1,11:R3-1:R2$$$V2.0; SMILES CC[C@H](C)[C@@H]1NC(=O)[C@H](C)NC(=O)[C@H](CCCNC(=N)N)NC(=O)[C@H](CC(C)C)NC(=O)[C@H](NC(=O)[C@H](C)NC(=O)[C@H](C)NC(C)=O)CSCc2ccc(cc2)-c2ccc(cc2)CSC[C@@H](C(=O)N[C@H](C(=O)N[C@@H](CC(N)=O)C(=O)N[C@@H](CC(C)C)C(=O)N[C@@H](C)C(=O)N[C@@H](CCC(N)=O)C(=O)N[C@@H](C)C(=O)N[C@@H](CC(C)C)C(=O)N[C@@H](CC(C)C)C(=O)N[C@@H](CC(N)=O)C(N)=O)C(C)C)NC(=O)[C@H](CC(=O)O)NC(=O)CNC1=O) [Noxa peptide 5]	29	–
AACLRRIGDCVNLRQKLLN (HELM PEPTIDE1{[ac].A.A.C.L.R.R.I.G.D.C.V.N.L.R.Q.K.L.L.N.[am]}|CHEM1{[c1cc(-c2ccc(C[*:2])cc2)ccc1C[*:1]]}$PEPTIDE1,CHEM1,4:R3-1:R1|PEPTIDE1,CHEM1,11:R3-1:R2$$$V2.0; SMILES CC[C@H](C)[C@@H]1NC(=O)[C@H](CCCNC(=N)N)NC(=O)[C@H](CCCNC(=N)N)NC(=O)[C@H](CC(C)C)NC(=O)[C@@H](NC(=O)[C@H](C)NC(=O)[C@H](C)NC(C)=O)CSCc2ccc(cc2)-c2ccc(cc2)CSC[C@@H](C(=O)N[C@H](C(=O)N[C@@H](CC(N)=O)C(=O)N[C@@H](CC(C)C)C(=O)N[C@@H](CCCNC(=N)N)C(=O)N[C@@H](CCC(N)=O)C(=O)N[C@@H](CCCCN)C(=O)N[C@@H](CC(C)C)C(=O)N[C@@H](CC(C)C)C(=O)N[C@@H](CC(N)=O)C(N)=O)C(C)C)NC(=O)[C@H](CC(=O)O)NC(=O)CNC1=O) [Noxa peptide 1]	10	–
AACLRAIGDCVNLAQALLN (HELM PEPTIDE1{[COC(=O)[*:2]].[meA].[meA].[dC].L.R.A.I.G.D.C.V.N.L.A.Q.A.L.L.N.[am]}|CHEM1{[c1cc(-c2ccc(C[*:2])cc2)ccc1C[*:1]]}$PEPTIDE1,CHEM1,4:R3-1:R1|PEPTIDE1,CHEM1,11:R3-1:R2$$$V2.0; SMILES CC[C@H](C)[C@@H]1NC(=O)[C@H](C)NC(=O)[C@H](CCCNC(=N)N)NC(=O)[C@H](CC(C)C)NC(=O)[C@H](NC(=O)[C@H](C)N(C)C(=O)[C@H](C)N(C)C(=O)OC)CSCc2ccc(cc2)-c2ccc(cc2)CSC[C@@H](C(=O)N[C@H](C(=O)N[C@@H](CC(N)=O)C(=O)N[C@@H](CC(C)C)C(=O)N[C@@H](C)C(=O)N[C@@H](CCC(N)=O)C(=O)N[C@@H](C)C(=O)N[C@@H](CC(C)C)C(=O)N[C@@H](CC(C)C)C(=O)N[C@@H](CC(N)=O)C(N)=O)C(C)C)NC(=O)[C@H](CC(=O)O)NC(=O)CNC1=O) [Noxa peptide 8]	22	–
AACLRRIGDCVNLRQKLLN (HELM PEPTIDE1{[COC(=O)[*:2]].[meA].A.[dC].L.R.R.I.G.D.C.V.N.L.R.Q.K.L.L.N.[am]}|CHEM1{[c1cc(-c2ccc(C[*:2])cc2)ccc1C[*:1]]}$PEPTIDE1,CHEM1,4:R3-1:R1|PEPTIDE1,CHEM1,11:R3-1:R2$$$V2.0; SMILES CC[C@H](C)[C@@H]1NC(=O)[C@H](CCCNC(=N)N)NC(=O)[C@H](CCCNC(=N)N)NC(=O)[C@H](CC(C)C)NC(=O)[C@H](NC(=O)[C@H](C)NC(=O)[C@H](C)N(C)C(=O)OC)CSCc2ccc(cc2)-c2ccc(cc2)CSC[C@@H](C(=O)N[C@H](C(=O)N[C@@H](CC(N)=O)C(=O)N[C@@H](CC(C)C)C(=O)N[C@@H](CCCNC(=N)N)C(=O)N[C@@H](CCC(N)=O)C(=O)N[C@@H](CCCCN)C(=O)N[C@@H](CC(C)C)C(=O)N[C@@H](CC(C)C)C(=O)N[C@@H](CC(N)=O)C(N)=O)C(C)C)NC(=O)[C@H](CC(=O)O)NC(=O)CNC1=O) [Noxa peptide 6]	32	–
fluorescein-AACLRRIGDCVNLRQKLLN-NH2 (linker 3-10 via biphenyl) [Fl-1 (Bph-cross-linked Noxa peptide 1)]	–	> 1000
